Several values for one entry are separate records, joined by “and”; a condition that tells them apart may be missing. Equal values may be shown once.
Columns and labels:
[1] = tested on: interferon-alpha (IFN-alpha); test: 2′Fluoro chemistries in PBMC: IFN-alpha production by ELISA; type: cell-based, human; conditions: G-CSF modified mRNA
[2] = tested on: rabbit reticulysates; test: G-CSF modified mRNA in rabbit reticulysates, G-CSF ELISA; type: biochemical; conditions: 250 ng of modified mRNA, listed as 5-methylcytosine/N1-methylpseudouridine
Description: To assess the activity of all our different chemical modifications in the context of a second open reading frame, we replicated experiments previously conducted using luciferase mRNA, with human G-CSF mRNA. […] The mutant T7 polymerase was obtained commercially (Durascribe® T7 Transcription kit (Cat. No. DS010925) (Epicentre®, Madison, Wis.).
The modified RNA in Tables 27 and 28 were transfected in vitro in HeLa cells or added to rabbit reticulysates (250 ng of modified mRNA) as indicated. […] In Table 27, “NT” means not tested.

[3] = tested on: tumor necrosis factor-alpha (TNF-alpha); test: 2′Fluoro chemistries in PBMC: TNF-alpha production by ELISA; type: cell-based, human; conditions: G-CSF modified mRNA
[4] = tested on: interferon-alpha (IFN-α); test: In vitro screening in PBMC: interferon-alpha induction by ELISA; type: cell-based, human
Method in brief: (§1)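 After harvest, the medium above the cells is stored frozen; later, ELISA quantifies G-CSF expression plus IFN-α and TNF-α levels.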

[5] = tested on: tumor necrosis factor alpha (TNF-α); test: In vitro screening in PBMC: tumor necrosis factor alpha induction by ELISA; type: cell-based, human
Source text: The supernatant was harvested and stored frozen until analyzed by ELISA to determine the G-CSF protein expression, and the induction of the cytokines interferon-alpha (IFN-α) and tumor necrosis factor alpha (TNF-α).

[6] = tested on: HeLa cells; test: G-CSF modified mRNA transfected in HeLa cells, G-CSF ELISA; type: cell-based, human; conditions: HeLa cells, ELISA
Method in brief: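 G-CSF ELISA readout after 250 ng of chemically modified human G-CSF mRNA (transcribed by mutant T7 polymerase) was added to rabbit reticulocyte lysate or transfected in vitro into HeLa cells.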

[7] = tested on: peripheral blood mononuclear cells (PBMC); test: In vitro screening in PBMC: G-CSF protein expression by ELISA; type: cell-based, human
Method in brief: as §1

[8] = listed as 5-methylcytidien/N1-methylpseudouridine
[9] = listed as 5-methylcytidine/N1-methylpseudouridine
[10] = PBMC Donor 1, 500 ng G-CSF mRNA
[11] = PBMC Donor 2, 500 ng G-CSF mRNA
[12] = PBMC Donor 2, 500 ng G-CSF mRNA, listed as 5-methylcytosine and N1-methylpseudouridine (2nd set)
[13] = PBMC Donor 2, 500 ng G-CSF mRNA, listed as 5-methylcytosine and N1-methylpseudouridine (4th set)
[14] = PBMC Donor 3, 500 ng G-CSF mRNA
[15] = PBMC Donor 3, 500 ng G-CSF mRNA, listed as 5-methylcytosine and N1-methylpseudouridine (2nd set)
[16] = PBMC Donor 3, 500 ng G-CSF mRNA, listed as 5-methylcytosine and N1-methylpseudouridine (4th set)

B1: 5-methylcytosine and N1-methyl-pseudouridine (1^st set): G-CSF mRNA (SEQ ID NO: 408) fully modified with 5-methylcytosine and N1-methylpseudouridine; repeated sets/tests (nucleic acid)
chain: GGGAAAUAAGAGAGAAAAGAAGAGUAAGAAGAAAUAUAAGAGCCACCAUGGCCGGUCCCGCGACCCAAAGCCCCAUGAAACUUAUGGCCCUGCAGUUGCUGCUUUGGCACUCGGCCCUCUGGACAGUCCAAGAAGCGACUCCUCUCGGACCUGCCUCAUCGUUGCCGCAGUCAUUCCUUUUGAAGUGUCUGGAGCAGGUGCGAAAGAUUCAGGGCGAUGGAGCCGCACUCCAAGAGAAGCUCUGCGCGACAUACAAACUUUGCCAUCCCGAGGAGCUCGUACUGCUCGGGCACAGCUUGGGGAUUCCCUGGGCUCCUCUCUCGUCCUGUCCGUCGCAGGCUUUGCAGUUGGCAGGGUGCCUUUCCCAGCUCCACUCCGGUUUGUUCUUGUAUCAGGGACUGCUGCAAGCCCUUGAGGGAAUCUCGCCAGAAUUGGGCCCGACGCUGGACACGUUGCAGCUCGACGUGGCGGAUUUCGCAACAACCAUCUGGCAGCAGAUGGAGGAACUGGGGAUGGCACCCGCGCUGCAGCCCACGCAGGGGGCAAUGCCGGCCUUUGCGUCCGCGUUUCAGCGCAGGGCGGGUGGAGUCCUCGUAGCGAGCCACCUUCAAUCAUUUUUGGAAGUCUCGUACCGGGUGCUGAGACAUCUUGCGCAGCCGUGAAGCGCUGCCUUCUGCGGGGCUUGCCUUCUGGCCAUGCCCUUCUUCUCUCCCUUGCACCUGUACCUCUUGGUCUUUGAAUAAAGCCUGAGUAGGAAG
modifications: 5-methylcytosine/N1-methylpseudouridine modified; Description of Artificial Sequence: Synthetic Transcript Sequence
notes: repeated sets/tests
[1]; [8]
  IFN-alpha: 3 Donor Average: 35 pg/mL
[1]; [9]
  IFN-alpha: 3 Donor Average: 31 pg/mL
[2]; Test A
  G-CSF protein (pg/ml) Rabbit reticulysates cells: 110,500 pg/ml
[2]; Test B
  G-CSF protein (pg/ml) Rabbit reticulysates cells: 76,750 pg/ml
[2]; Test D
  G-CSF protein (pg/ml) Rabbit reticulysates cells: 97,125 pg/ml
[3]; [8]
  TNF-alpha: 2 Donor Average: 3 pg/mL
[3]; [9]
  TNF-alpha: 2 Donor Average: 280 pg/mL
[4]; [10]
  IFN-α Expression: 0 pg/mL
[4]; [11]
  IFN-α Expression: 60 pg/mL
[4]; [12]
  IFN-α Expression: 66 pg/mL
[4]; [13]
  IFN-α Expression: 0 pg/mL
[4]; [14]
  IFN-α Expression: 136 pg/mL
[4]; [15]
  IFN-α Expression: 140 pg/mL
[4]; [16]
  IFN-α Expression: 0 pg/mL
[5]; [10]
  TNF-α Expression: 54 pg/mL
[5]; PBMC Donor 1, 500 ng G-CSF mRNA, listed as 5-methylcytosine and N1-methylpseudouridine (2nd set)
  TNF-α Expression: 54 pg/mL
[5]; PBMC Donor 1, 500 ng G-CSF mRNA, listed as 5-methylcytosine and N1-methylpseudouridine (4th set)
  TNF-α Expression: 36 pg/mL
[5]; [11]
  TNF-α Expression: 79 pg/mL
[5]; [12]
  TNF-α Expression: 97 pg/mL
[5]; [13]
  TNF-α Expression: 14 pg/mL
[5]; [14]
  TNF-α Expression: 126 pg/mL
[5]; [15]
  TNF-α Expression: 149 pg/mL
[5]; [16]
  TNF-α Expression: 13 pg/mL
[6]; G-CSF mRNA, listed as 5-methylcytosine/N1-methylpseudouridine, Control
  G-CSF protein (pg/ml) HeLa cells: 1,106,591 pg/ml
[6]; G-CSF mRNA, listed as 5-methylcytosine/N1-methylpseudouridine, Test A
  G-CSF protein (pg/ml) HeLa cells: 1,534,318 pg/ml
[6]; G-CSF mRNA, listed as 5-methylcytosine/N1-methylpseudouridine, Test B
  G-CSF protein (pg/ml) HeLa cells: 1,568,636 pg/ml
[6]; G-CSF mRNA, listed as 5-methylcytosine/N1-methylpseudouridine, Test D
  G-CSF protein (pg/ml) HeLa cells: 1,168,864 pg/ml
[6]; combination chemistries, listed as 5-methylcytidine/N1-methylpseudouridine
  G-CSF protein (pg/ml) HeLa cells: 747,045 pg/ml and 689,091 pg/ml
[6]; combination chemistries, listed as 5-methylcytosine/N1-methylpseudouridine
  G-CSF protein (pg/ml) HeLa cells: 1,017,727 pg/ml
[6]; combination chemistries, listed as 5-methylcytosine/N1-methylpseudouridine, Control 1
  G-CSF protein (pg/ml) HeLa cells: 848,409 pg/ml
[6]; combination chemistries, listed as 5-methylcytosine/N1-methylpseudouridine, Control 2
  G-CSF protein (pg/ml) HeLa cells: 581,818 pg/ml
[7]; [10]
  G-CSF Protein Expression: 10,232 pg/ml
[7]; PBMC Donor 1, 500 ng G-CSF mRNA, listed as 5-methylcytosine and N1-methyl-pseudouridine (2nd set)
  G-CSF Protein Expression: 9,564 pg/ml
[7]; PBMC Donor 1, 500 ng G-CSF mRNA, listed as 5-methylcytosine and N1-methyl-pseudouridine (4th set)
  G-CSF Protein Expression: 9,505 pg/ml
[7]; [11]
  G-CSF Protein Expression: 7,245 pg/ml
[7]; PBMC Donor 2, 500 ng G-CSF mRNA, listed as 5-methylcytosine and N1-methyl-pseudouridine (2nd set)
  G-CSF Protein Expression: 8,509 pg/ml
[7]; PBMC Donor 2, 500 ng G-CSF mRNA, listed as 5-methylcytosine and N1-methyl-pseudouridine (4th set)
  G-CSF Protein Expression: 6,927 pg/ml
[7]; [14]
  G-CSF Protein Expression: 6,214 pg/ml
[7]; PBMC Donor 3, 500 ng G-CSF mRNA, listed as 5-methylcytosine and N1-methyl-pseudouridine (2nd set)
  G-CSF Protein Expression: 7,141 pg/ml
[7]; PBMC Donor 3, 500 ng G-CSF mRNA, listed as 5-methylcytosine and N1-methyl-pseudouridine (4th set)
  G-CSF Protein Expression: 5,405 pg/ml

Reference: US20180291335A1, “MODIFIED POLYNUCLEOTIDES FOR ALTERING CELL PHENOTYPE” (ModernaTX, Inc., priority 2012, published 2018)
